Test results reported in article doi:10.1101/830265, “Relationships between puroindoline-prolamin interactions and wheat grain hardness” (bioRxiv, 2019).

Columns and labels:
puroindoline A [1] = molecular target: T1, puroindoline A (Triticum aestivum, UniProt P33432 29-148); test: SPR; same sensorgrams as the kinetic fit (immobilised (PQQPY)8, PINA 2 to 20 uM flowed, 25°C, Hepes buffer pH 7.4); steady-state fit, 1:1 Langmuir model; conditions: both partners purified
T1 construct: puroindoline A (PINA) of Triticum aestivum, purified from grain of cv; about 13 kDa, five disulfide bonds; matured by cleavages at both N- and C-termini, with forms that differ at the C-terminus; The Pina allele of cv; also called PINA; source: purified from the hard wheat Triticum aestivum cultivar Recital
T1 sequence (looked up): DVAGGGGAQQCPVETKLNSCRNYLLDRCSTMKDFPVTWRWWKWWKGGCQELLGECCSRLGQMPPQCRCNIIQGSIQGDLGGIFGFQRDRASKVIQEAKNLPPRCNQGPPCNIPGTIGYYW

puroindoline A [2] = molecular target: T1, puroindoline A; test: SPR; Biacore X100, CM5 chip; gliadin or (PQQPY)8 covalently immobilised, PINA flowed at 10 uL/min, 25°C, Hepes buffer pH 7.4 (10 mM Hepes, 150 mM NaCl, 3.4 mM EDTA, 0.005% P20); global kinetic fit, 1:1 Langmuir model, KD=kd/ka; conditions: both partners purified

B1: recombinant polypeptide (PQQPY)8 (peptide)
chain: PQQPYPQQPYPQQPYPQQPYPQQPYPQQPYPQQPYPQQPY
notes: eight repeats of the pentapeptide PQQPY, written out from the printed formula (PQQPY)8; mimics the consensus repeat domain of gliadins; measured mass 4924.5 Da (theoretical 4924.3 Da); Released from thioredoxin-DP-(PQQPY)8 by formic acid; the printed theoretical mass of 4924.3 Da fits the 40 residues of eight repeats with no further residue; also called (Pro-Gln-Gln-Pro-Tyr)8; repetitive domain …
How did the Kd (puroindoline A [1]) turn out when B1 was run?
Its Kd is 7.22 µM.

What about the Kd (puroindoline A [2]) of the same binder?
Its Kd is 0.29 µM.
